Experimental data published in publication PMC4237437, “Biochemical and Structural Characterization of Mycobacterial Aspartyl-tRNA Synthetase AspS, a Promising TB Drug Target” (PLoS ONE, 2014).

Columns and labels:
[1] = biological target: T1, Mt-AspS (M. tuberculosis aspartyl-tRNA synthetase) (Mycobacterium tuberculosis, UniProt P9WFW3); experiment: biochemical
T1 construct: C-terminally His6-tagged Mt-AspS (pET28b)

N[C@@H](CC(=O)O)C(=O)O = experiment: purified protein
[2] = tested on: Nc1ncnc2c1ncn2[C@@H]1O[C@H](COP(=O)(O)OP(=O)(O)CP(=O)(O)O)[C@@H](O)[C@H]1O; experiment: purified protein
[3] = tested on: Nc1ncnc2c1ncn2[C@@H]1O[C@H](COP(=O)(O)OP(=O)(O)NP(=O)(O)O)[C@@H](O)[C@H]1O; experiment: purified protein
O=P(O)(O)OP(=O)(O)O = experiment: purified protein
[4] = biological target: the molecule itself; experiment: crystal structure; apo Ms-AspS, 2.4 Å, space group C222(1), one molecule per asymmetric unit; the two monomers of the dimer are related by crystal symmetry; crystals from 30% pentaerythritol ethoxylate, 0.1 M magnesium formate, 0.1 M Tris-HCl pH 8.5

T1 sequence (P9WFW3 whole entry): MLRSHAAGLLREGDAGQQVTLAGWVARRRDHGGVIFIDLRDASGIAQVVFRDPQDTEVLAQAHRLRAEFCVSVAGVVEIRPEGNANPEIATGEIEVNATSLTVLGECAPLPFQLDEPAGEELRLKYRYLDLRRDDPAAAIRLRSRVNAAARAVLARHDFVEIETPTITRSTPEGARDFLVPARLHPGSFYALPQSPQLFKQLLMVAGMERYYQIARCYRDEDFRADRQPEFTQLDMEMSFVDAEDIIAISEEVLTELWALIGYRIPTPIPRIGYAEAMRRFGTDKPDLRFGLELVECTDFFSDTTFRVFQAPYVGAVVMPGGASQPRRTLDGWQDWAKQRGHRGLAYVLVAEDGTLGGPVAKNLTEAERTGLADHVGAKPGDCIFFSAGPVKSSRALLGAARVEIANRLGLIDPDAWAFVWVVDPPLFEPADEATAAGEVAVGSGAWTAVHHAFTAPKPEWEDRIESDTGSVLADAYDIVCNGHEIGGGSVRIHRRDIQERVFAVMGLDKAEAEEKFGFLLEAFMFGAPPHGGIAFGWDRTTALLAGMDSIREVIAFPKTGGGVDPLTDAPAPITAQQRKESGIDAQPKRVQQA

NC(=O)C1CCN(C2=NC(=O)/C(=C\c3ccc(Cl)cc3Cl)S2)CC1 [compound 1, F1673-0402]
IC50 [1]: 49.9 µM

CCOC(=O)C1CCN(C2=NC(=O)/C(=C\c3ccc(Cl)cc3)S2)CC1 [compound 2, 6632725]
IC50 [1]: 59.1 µM

Mt-AspS (M. tuberculosis aspartyl-tRNA synthetase) (Mycobacterium tuberculosis H37Rv)
Km (N[C@@H](CC(=O)O)C(=O)O): 143.4 ± 18.83 µM | Km [2]: 98.25 ± 11.23 µM | Km [3]: 604.7 ± 40.27 µM | Km (O=P(O)(O)OP(=O)(O)O): 76.42 ± 10.10 µM

B1: Mycobacterium smegmatis aspartyl-tRNA synthetase AspS (enzyme, UniProt A0QWN3 1-598, looked up)
chain: MLRTHAAGSLRPADAGQTVTLAGWVARRRDHGGVIFIDLRDASGVSQVVFREGDVLAAAHRLRAEFCVAVTGVVEVRPEGNENPEIPTGQIEVNATELTVLGESAPLPFQLDEQAGEEARLKYRYLDLRREGPGNALRLRSKVNAAARSVLAEHDFVEIETPTLTRSTPEGARDFLVPARLQPGSFYALPQSPQLFKQLLMVAGMERYYQIARCYRDEDFRADRQPEFTQLDMEMSFVEADDVIAISEQVLKAVWATIGYDLPLPLPRISYEEAMRRFGSDKPDLRFGIELVECTEYFKDTTFRVFQAPYVGAVVMPGGASQPRRTLDGWQEFAKQRGHKGLAYVLVGEDGTLGGPVAKNLSDAERDGLVAHVGANPGDCIFFAAGPAKGARALLGATRIEIAKRLDLIDPNAWAFTWVVDFPMFEAADEATAAGDVAVGSGAWTAMHHAFTAPKPDSVDTFDSDPGNALSDAYDIVCNGNEIGGGSIRIHRRDIQERVFAMMGIDHDEAQEKFGFLLDAFSYGAPPHGGIAFGWDRITALLAGVDSIREVIAFPKSGGGVDPLTDAPAPITPQQRKESGIDAKPREDKPKEDAKSKA
notes: Aspartyl-tRNA synthetase AspS of Mycobacterium smegmatis; The expression and purification protocol is printed only for Mt-AspS (E. coli C41 (DE3), Ni2+ HisTrap); also called Ms-AspS; MsAspS; source: cloned from M. smegmatis genomic DNA into pET28b; dialysed and concentrated by ultrafiltration before crystallisation
stoichiometry N [4]: 2
